According to patent US20130315910A1 (Xencor, published 2013):

Legend:
Assay in all cases: SPR
[1] = biological target: T1, human FcγRI receptor protein (R&D Systems) (human, UniProt P12314 16-288)
T1 construct: also called soluble FcγRI; solFcγRI

[2] = biological target: T2, human FcγRIIa (131R), His- and GST-tagged (human, UniProt P12318 34-217)
T2 construct: Expressed in HEK293T cells, purified by nickel chromatography; also called R131 FcγRIIa; not shown: 6xHis and GST tags of the pTT5 vector
T2 sequence (looked up): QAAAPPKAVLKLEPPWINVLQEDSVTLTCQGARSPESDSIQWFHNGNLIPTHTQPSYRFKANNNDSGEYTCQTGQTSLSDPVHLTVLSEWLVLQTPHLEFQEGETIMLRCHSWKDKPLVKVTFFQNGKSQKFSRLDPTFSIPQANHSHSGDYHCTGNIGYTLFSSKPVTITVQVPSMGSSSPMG

[3] = biological target: T3, human FcγRIIa (131H), His- and GST-tagged (human, UniProt P12318 34-217)
T3 construct: also called H131 FcγRIIa; HIIa; not shown: 6xHis and GST tags of the pTT5 vector
T3 sequence (looked up): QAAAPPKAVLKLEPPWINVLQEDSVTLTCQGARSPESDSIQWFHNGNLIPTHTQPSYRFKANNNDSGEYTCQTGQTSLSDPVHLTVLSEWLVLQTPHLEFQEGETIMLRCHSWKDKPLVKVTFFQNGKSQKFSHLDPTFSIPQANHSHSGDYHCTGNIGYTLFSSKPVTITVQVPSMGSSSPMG

[4] = biological target: T4, human FcγRIIIa (158V), His- and GST-tagged (human, UniProt P08637 17-208)
T4 construct: also called V158 FcγRIIIa; VIIIa; not shown: 6xHis and GST tags of the pTT5 vector
T4 sequence (P08637 17-208 F176V): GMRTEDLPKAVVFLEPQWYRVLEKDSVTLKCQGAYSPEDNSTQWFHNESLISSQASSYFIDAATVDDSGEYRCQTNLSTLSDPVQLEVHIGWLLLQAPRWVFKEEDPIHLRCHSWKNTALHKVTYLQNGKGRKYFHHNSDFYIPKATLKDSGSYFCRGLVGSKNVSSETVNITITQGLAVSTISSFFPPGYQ

T1 sequence (P12314 16-288 limits assumed): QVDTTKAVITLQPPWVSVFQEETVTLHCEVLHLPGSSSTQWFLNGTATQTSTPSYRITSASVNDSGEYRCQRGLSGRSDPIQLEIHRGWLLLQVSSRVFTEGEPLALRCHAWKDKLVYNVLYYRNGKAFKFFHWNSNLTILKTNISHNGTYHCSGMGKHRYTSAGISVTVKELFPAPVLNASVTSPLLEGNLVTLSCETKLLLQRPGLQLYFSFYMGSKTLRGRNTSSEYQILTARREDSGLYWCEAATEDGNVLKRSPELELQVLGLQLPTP

B1: anti-CD19 antibody HuAM4G7 IgG1 S267E (antibody)
heavy: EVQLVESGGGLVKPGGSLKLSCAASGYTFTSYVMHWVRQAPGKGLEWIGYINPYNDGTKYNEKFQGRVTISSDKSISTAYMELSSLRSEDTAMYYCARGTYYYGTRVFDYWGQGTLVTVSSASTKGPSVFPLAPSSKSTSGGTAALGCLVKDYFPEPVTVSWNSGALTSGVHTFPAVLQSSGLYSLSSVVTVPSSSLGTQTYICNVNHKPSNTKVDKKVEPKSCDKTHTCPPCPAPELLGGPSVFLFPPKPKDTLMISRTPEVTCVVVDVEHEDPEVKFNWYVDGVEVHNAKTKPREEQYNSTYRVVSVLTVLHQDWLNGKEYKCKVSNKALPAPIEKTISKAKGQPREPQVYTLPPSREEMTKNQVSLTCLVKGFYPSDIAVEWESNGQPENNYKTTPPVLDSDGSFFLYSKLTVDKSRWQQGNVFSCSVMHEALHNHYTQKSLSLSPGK
light: DIVMTQSPATLSLSPGERATLSCRSSKSLQNVNGNTYLYWFQQKPGQSPQLLIYRMSNLNSGVPDRFSGSGSGTEFTLTISSLEPEDFAVYYCMQHLEYPITFGAGTKLEIKRTVAAPSVFIFPPSDEQLKSGTASVVCLLNNFYPREAKVQWKVDNALQSGNSQESVTEQDSKDSTYSLSSTLTLSKADYEKHKVYACEVTHQGLSSPVTKSFNRGEC
notes: Positions in EU numbering; copies: 2 + 2
B1 was tested, and the “Fold vs WT IgG1” value [1] was 2.81 fold, the Kd [1] was 0.000117 µM and the “Fold vs WT IgG1” value [2] was 29.5 fold. For the same binder, the Kd [2] was 0.0291 µM, the “Fold vs WT IgG1” value [3] was 0.753 fold and the Kd [3] was 0.859 µM. The “Fold vs WT IgG1” value [4] was 0.381 fold and the Kd [4] was 0.503 µM.
